Reference: paper PMC7859239, “Conserved strategies of RNA polymerase I hibernation and activation” (Nature Communications, 2021)

B1: S. pombe common RNA polymerase subunit Rpb12 (natural protein, UniProt P48011 1-63, looked up)
chain: MNHPTSTGGTAFNPPRPATMIYLCADCGARNTIQAKEVIRCRECGHRVMYKMRTKRMVQFEAR
notes: general (common) RNA polymerase subunit Rpb12, S. pombe; source: endogenous, S. pombe, purified as part of Pol I (Ni-NTA, MonoQ, MonoS)
B2: S. pombe Pol I subunit A43 (natural protein, UniProt O43036 1-173, looked up)
chain: MPDLSLYKQTVDLYLSIAPGHSRDPLNAIQEHMDSMILSKLPRINGIVLAYDNIRFLEKSAKVMYDSPFSFIWVRVDVLVFSPKKGDCLEGKINLVSPSHIGLLILGIFNASIPRKSIPKDWIFIEPDTTEEQGRWKTNDGNILEPGKDLEFVVDGIQREAGLTMVQGTLANS
notes: RNA polymerase I stalk subunit A43, S. pombe; Lacks the connector domain of the S. cerevisiae protein; also called stalk subunit A43; source: endogenous, S. pombe, purified as part of Pol I (Ni-NTA, MonoQ, MonoS)
B3: S. pombe Pol I subunit AC40 with C-terminal flag-his tag (natural protein, UniProt O94616 1-348, looked up)
chain: MAAVDRSRTEISVLSDRVTDVGSVDFPGYYFDEDNIWDLDKFKKNLKVSITSLDQETMVFEISGIDASIANAFRRILIAEIPTLAFEFVYIINNTSIIQDEVLSHRIGLVPISADPDMFKWFQHPLPGQEATHTDYDTVVFSLNKKCEFNKNAATDEKDPKRLYVNSEVYSGDLIWKPQGRQEERFADNPIRVVNPDIVVAKLRPGQEIDLEAHAILGIGQDHAKFSPVATASYRLLPTIHILSPIEGEDAVKFQKCFPKGVIELEEGPDGKKQARVADVRKDTVSRECLRHPEFADKVQLGRVRDHYLFSVESTGIMKPDVLFIKSIAVLKSKCLAVKSSLQNISSD
notes: RNA polymerase I and III subunit AC40, S. pombe; source: endogenous, genomically tagged S. pombe strain, purified as part of Pol I (Ni-NTA, MonoQ, MonoS); not shown: 10xHis, C-terminal, kept
B4: S. pombe Pol I subunit A135 (natural protein, UniProt Q9P7X8 1-1174, looked up)
chain: MSFQTLERERTFKNPPKDGTSFPDLQKAVKPHVDSFNALTNAGLLNYAVKEIGEKCAFDSITQEEGGALKFGNKISFRVDEVQIAKPMLSSRERSSINRKVYPAEARERLTTYKSRLVLKFSWSVNGGPRQSEMREVGMIPIMVRSNRCHLEGLSPAELIAHKEESEEMGGYFIVNGIEKLIRMLILPKRNHPTAIIRPSFANRGTSYSQYGLSIRCVRPDQSSLTNTLHYLNNGVTMFRFHWRKNEYLIPSMMILKALLETSDKEIFEGIVGKDLGNTFLTDRVELMLRAYKSYGLYSQTETLQYLGSKFRVVLGVAEDLTDVEVGRFLLQKVVLVHLREAKDKFRLLLFMIRKLYALVAGECCADNPDSPQHQEILLGGFLYGQILKEKIEDWLNSIRAQINLDVRRSAPGVDFSDRKYLTRVFSKINNDIGTKLQYFLSTGNLVSNTGLDLQQATGYTVVAEKLNFYRFLSHFRMVHRGAFFAELKTTTVRKLLPEAWGFMCPVHTPDGSPCGLLNHLARKCEIVTHPSDVSQIPSLLLSLGVDPPSVVGHESGWGCVQLDGKIVGWCTYKLAKHVADVLRLMKIEYAVKLRNGTATEPAKVPLDLEIGYVPPSHNGQYPGLYLFSNPARMVRPVKHISTGELDMLGPFEQVYMDIACFPKEIVPKVSTHVEYSPTNVLSIVANMTPFSDFNQSPRNMYQCQMGKQTMGTPGTALRYRTDNKLYRLQTGQTPVVRPKLHNTYGLDHYPNGTNAVVAVISYTGYDMEDAMILNKSAHERGFGYGTVYKGESFDLSQKRRRGEPVVHHFGFAPGSTPRREWLQKLDADGLPFIGIKLEDGDPIVAYYDESTGQNFIETYHGTEPGFVDEVRLLGNDVGDSECQQIHVKLRITRSPIIGDKFSSRHGQKGICSQKWPTVDMPFTESGMQPDIIINPHAFPSRMTIGMFIESLAGKAGACHGLAQDSTPFIYSEQQTAADYFGEQLVKAGYNYHGNEPMYSGITGQEMKADIYIGVVYYQRLRHMVSDKFQVRTTGPIHNLTRQPVKGRKRAGGIRFGEMERDAVIGHGTSFLMQDRLMNCSDYAQSWVCRDCGSIISIMSTISMNGVGSASEVRCRSCAKPALGLEDTSDIWQDGSGKKFVGGTNTTLIALPSVFNYLTAELTAMNIKMMLEVK
notes: RNA polymerase I subunit A135, S. pombe; source: endogenous, S. pombe, purified as part of Pol I (Ni-NTA, MonoQ, MonoS)

How the values were obtained:
[1] = target: T1, S. pombe Pol I subunit A190 (Schizosaccharomyces pombe (endogenous …, UniProt P15398 1-1689)); experiment: cryo-EM structure; dimer particles in the 'monomer' dataset of BS3-crosslinked Sp Pol I after SEC (5 mM HEPES pH 7.8, 1 mM MgCl2, 10 µM ZnCl2, 150 mM KCl, 5 mM DTT); C2 symmetry imposed; 4.5 Å; model by placing two monomers and rigid body fitting of subdomains; conditions: both partners purified
T1 construct: RNA polymerase I subunit A190, S. pombe; source: endogenous, S. pombe, purified as part of Pol I (Ni-NTA, MonoQ, MonoS)

[2] = target: B4; experiment: as above; conditions: both partners purified

T1 sequence (P15398 whole entry): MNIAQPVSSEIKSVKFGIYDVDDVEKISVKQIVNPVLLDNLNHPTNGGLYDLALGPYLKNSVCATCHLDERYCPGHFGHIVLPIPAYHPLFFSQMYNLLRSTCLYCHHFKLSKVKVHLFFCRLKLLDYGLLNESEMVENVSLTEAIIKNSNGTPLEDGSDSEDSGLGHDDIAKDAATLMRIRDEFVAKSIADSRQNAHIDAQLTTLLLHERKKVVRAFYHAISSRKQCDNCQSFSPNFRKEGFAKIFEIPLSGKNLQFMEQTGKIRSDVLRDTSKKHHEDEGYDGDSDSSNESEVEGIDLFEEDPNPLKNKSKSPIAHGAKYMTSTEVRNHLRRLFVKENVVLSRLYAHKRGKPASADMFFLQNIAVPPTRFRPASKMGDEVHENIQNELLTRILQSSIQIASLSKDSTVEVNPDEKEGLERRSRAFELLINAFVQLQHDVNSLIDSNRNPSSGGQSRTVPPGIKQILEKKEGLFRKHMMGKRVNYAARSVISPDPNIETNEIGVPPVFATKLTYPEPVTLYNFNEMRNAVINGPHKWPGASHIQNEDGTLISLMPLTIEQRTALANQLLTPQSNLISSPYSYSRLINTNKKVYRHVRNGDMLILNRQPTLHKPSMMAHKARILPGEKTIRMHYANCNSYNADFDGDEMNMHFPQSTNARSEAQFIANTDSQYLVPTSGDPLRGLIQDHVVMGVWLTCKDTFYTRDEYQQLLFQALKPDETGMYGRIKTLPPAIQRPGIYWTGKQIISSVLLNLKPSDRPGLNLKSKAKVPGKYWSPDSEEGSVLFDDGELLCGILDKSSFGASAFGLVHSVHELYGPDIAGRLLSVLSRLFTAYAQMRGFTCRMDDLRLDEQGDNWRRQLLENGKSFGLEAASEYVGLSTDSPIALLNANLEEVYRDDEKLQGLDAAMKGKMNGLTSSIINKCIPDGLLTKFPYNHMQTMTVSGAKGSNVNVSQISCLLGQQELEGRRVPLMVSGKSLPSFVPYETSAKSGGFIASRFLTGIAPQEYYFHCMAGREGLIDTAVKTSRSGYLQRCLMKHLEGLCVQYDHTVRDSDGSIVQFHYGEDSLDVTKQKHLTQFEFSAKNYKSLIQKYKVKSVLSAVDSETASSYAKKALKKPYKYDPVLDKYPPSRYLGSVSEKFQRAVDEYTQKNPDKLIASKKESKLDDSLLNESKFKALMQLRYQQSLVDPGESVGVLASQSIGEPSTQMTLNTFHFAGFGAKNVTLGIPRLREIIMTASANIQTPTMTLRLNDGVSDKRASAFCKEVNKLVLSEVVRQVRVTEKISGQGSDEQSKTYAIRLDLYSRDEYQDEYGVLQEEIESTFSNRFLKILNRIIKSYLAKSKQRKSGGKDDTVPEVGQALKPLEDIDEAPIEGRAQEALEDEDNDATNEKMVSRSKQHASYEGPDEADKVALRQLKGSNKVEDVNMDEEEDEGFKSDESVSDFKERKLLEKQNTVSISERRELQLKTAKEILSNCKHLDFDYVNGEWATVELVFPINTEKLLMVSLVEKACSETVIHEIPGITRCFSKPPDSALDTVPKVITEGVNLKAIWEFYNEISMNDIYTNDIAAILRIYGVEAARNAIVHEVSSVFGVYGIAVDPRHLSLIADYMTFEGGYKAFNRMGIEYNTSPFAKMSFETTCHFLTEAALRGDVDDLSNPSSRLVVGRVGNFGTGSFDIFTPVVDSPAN

Binder | binding result [1] | binding result [2]
B1 | binds | 
B2 |  | binds
B3 | binds | 
B4 | binds | 
